From patent publication US20260008815A1, “CYCLIC PEPTIDE OR SALT THEREOF, AND USES THEREOF” (FUJIFILM Corporation, priority 2023, published 2026)
Bridge positions count the residues as written; N and C are the ends. Ends that are not written are not given here. COCH2 = acetyl group that carries the bridge

target: T1, Recombinant Human FGFR2 alpha (IIIc) Fc Chimera Protein, CF (R&D systems, 712-FR-050) (human, UniProt P21802 22-377); experiment: ELISA on plate-bound FGFR2-Fc
T1 construct: bought; not shown: Fc part of the chimera
T1 sequence (P21802 22-377, change not shown): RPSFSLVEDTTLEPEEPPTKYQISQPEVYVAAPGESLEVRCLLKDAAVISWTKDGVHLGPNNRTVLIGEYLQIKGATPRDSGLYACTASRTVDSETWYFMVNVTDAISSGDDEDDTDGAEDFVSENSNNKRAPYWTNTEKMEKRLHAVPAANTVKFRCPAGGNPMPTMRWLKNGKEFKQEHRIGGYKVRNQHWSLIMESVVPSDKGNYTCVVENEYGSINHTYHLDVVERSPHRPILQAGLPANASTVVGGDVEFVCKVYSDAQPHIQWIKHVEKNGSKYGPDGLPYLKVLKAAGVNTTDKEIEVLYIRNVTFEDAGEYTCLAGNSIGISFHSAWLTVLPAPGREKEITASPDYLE
Procedure: First, 5 ng of Recombinant Human FGFR2 alpha (IIIc) Fc Chimera Protein (R&D systems, 712-FR-050) was immobilized in each well of a 96-well plate, and blocked with Pierce Protein-Free (PBS) Blocking Buffer (Thermo, 37572), and a peptide diluted with Can Get Signal Immunoreaction Enhancer Solution I (TOYOBO, NKB-101) was then added and reacted at room temperature for 3 hours. After washing with 0.05% Tween 20-containing phosphate buffered saline (PBS), an anti-Myc antibody (Cell Signaling, 14038S) diluted with Can Get Signal Immunoreaction Enhancer Solution II (TOYOBO, NKB-101) was added and reacted at room temperature for 2 hours. After washing with 0.05% Tween 20-containing PBS, SuperSignal ELISA Femto Substrate (Thermo, 37075) was added, and the luminescence amount was measured. The dose-response relationship was calculated from using the difference between the luminescence amount in the well in which FGFR was immobilized and the luminescence amount in the well in which FGFR was not immobilized, and the concentration of the peptide at the time of reaction, and the binding affinity to FGFR was evaluated according to the following evaluation criteria. The evaluation result preferably satisfies the evaluation criteria A, B, or C.

For YCEENYEDPEQYQYFIYFK(COCH2)Y (thioether 2-19 (inferred)) [cyclic peptide SEQ ID NO: 204], which “ELISA luminescence signal at 10 nmol/L peptide, relative to SEQ ID NO: 47 (=1)” value is on record?
Its value is 0.1 to 0.5 ratio.

YCEENYLWPEQYQYFIYFK(COCH2)Y (thioether 2-19 (inferred)) [cyclic peptide SEQ ID NO: 213] was tested. Which “ELISA luminescence signal at 10 nmol/L peptide, relative to SEQ ID NO: 47 (=1)” value did it give?
Its value is 0.5 to 0.7 ratio.

YCEENYRDPEQYQYFIYFK(COCH2)Y (thioether 2-19 (inferred)) [cyclic peptide SEQ ID NO: 205] was tested. Which “ELISA luminescence signal at 10 nmol/L peptide, relative to SEQ ID NO: 47 (=1)” value did it give?
Its value is no less than 0.7 ratio.

With YCEENYLDFEQYQYFIYFK(COCH2)Y (thioether 2-19 (inferred)) [cyclic peptide SEQ ID NO: 225] as the binder, how does the “ELISA luminescence signal at 10 nmol/L peptide, relative to SEQ ID NO: 47 (=1)” value read?
Its value is no less than 0.7 ratio.

Which “ELISA luminescence signal at 10 nmol/L peptide, relative to SEQ ID NO: 47 (=1)” value does the source give for YCEENYLTPEQYQYFIYFK(COCH2)Y (thioether 2-19 (inferred)) [cyclic peptide SEQ ID NO: 217] here?
The value was no less than 0.7 ratio.

YCEENYLLPEQYQYFIYFK(COCH2)Y (thioether 2-19 (inferred)) [cyclic peptide SEQ ID NO: 208] was tested. Which “ELISA luminescence signal at 10 nmol/L peptide, relative to SEQ ID NO: 47 (=1)” value did it give?
Its value is 0.1 to 0.5 ratio.

How did the “ELISA luminescence signal at 10 nmol/L peptide, relative to SEQ ID NO: 47 (=1)” value turn out when YCEENYLNPEQYQYFIYFK(COCH2)Y (thioether 2-19 (inferred)) [cyclic peptide SEQ ID NO: 214] was run?
The value was no less than 0.7 ratio.

Which “ELISA luminescence signal at 10 nmol/L peptide, relative to SEQ ID NO: 47 (=1)” value does the source give for YCEENYLVPEQYQYFIYFK(COCH2)Y (thioether 2-19 (inferred)) [cyclic peptide SEQ ID NO: 210] here?
Its value is 0.1 to 0.5 ratio.

YCEENYLFPEQYQYFIYFK(COCH2)Y (thioether 2-19 (inferred)) [cyclic peptide SEQ ID NO: 211] was tested. Which “ELISA luminescence signal at 10 nmol/L peptide, relative to SEQ ID NO: 47 (=1)” value did it give?
Its value is no less than 0.7 ratio.

Which “ELISA luminescence signal at 10 nmol/L peptide, relative to SEQ ID NO: 47 (=1)” value does the source give for YCEENYLDEEQYQYFIYFK(COCH2)Y (thioether 2-19 (inferred)) [cyclic peptide SEQ ID NO: 233] here?
The value was no less than 0.7 ratio.

With YCEENYLDIEQYQYFIYFK(COCH2)Y (thioether 2-19 (inferred)) [cyclic peptide SEQ ID NO: 223] as the binder, how does the “ELISA luminescence signal at 10 nmol/L peptide, relative to SEQ ID NO: 47 (=1)” value read?
The value was no less than 0.7 ratio.

YCEENYLEPEQYQYFIYFK(COCH2)Y (thioether 2-19 (inferred)) [cyclic peptide SEQ ID NO: 218] was tested. Which “ELISA luminescence signal at 10 nmol/L peptide, relative to SEQ ID NO: 47 (=1)” value did it give?
The value was no less than 0.7 ratio.

Which “ELISA luminescence signal at 10 nmol/L peptide, relative to SEQ ID NO: 47 (=1)” value does the source give for YCEENYLSPEQYQYFIYFK(COCH2)Y (thioether 2-19 (inferred)) [cyclic peptide SEQ ID NO: 216] here?
The value was no less than 0.7 ratio.

For YCEENYLDSEQYQYFIYFK(COCH2)Y (thioether 2-19 (inferred)) [cyclic peptide SEQ ID NO: 230], which “ELISA luminescence signal at 10 nmol/L peptide, relative to SEQ ID NO: 47 (=1)” value is on record?
Its value is no less than 0.7 ratio.

YCEENYHDPEQYQYFIYFK(COCH2)Y (thioether 2-19 (inferred)) [cyclic peptide SEQ ID NO: 206] was tested. Which “ELISA luminescence signal at 10 nmol/L peptide, relative to SEQ ID NO: 47 (=1)” value did it give?
The value was no less than 0.7 ratio.

With YCEENYLIPEQYQYFIYFK(COCH2)Y (thioether 2-19 (inferred)) [cyclic peptide SEQ ID NO: 209] as the binder, how does the “ELISA luminescence signal at 10 nmol/L peptide, relative to SEQ ID NO: 47 (=1)” value read?
The value was 0.1 to 0.5 ratio.

Which “ELISA luminescence signal at 10 nmol/L peptide, relative to SEQ ID NO: 47 (=1)” value does the source give for YCEENYLDVEQYQYFIYFK(COCH2)Y (thioether 2-19 (inferred)) [cyclic peptide SEQ ID NO: 224] here?
The value was no less than 0.7 ratio.

With YCEENYLDPYQYQYFIYFK(COCH2)Y (thioether 2-19 (inferred)) [cyclic peptide SEQ ID NO: 242] as the binder, how does the “ELISA luminescence signal at 10 nmol/L peptide, relative to SEQ ID NO: 47 (=1)” value read?
Its value is no less than 0.7 ratio.

With YCEENYLDLEQYQYFIYFK(COCH2)Y (thioether 2-19 (inferred)) [cyclic peptide SEQ ID NO: 222] as the binder, how does the “ELISA luminescence signal at 10 nmol/L peptide, relative to SEQ ID NO: 47 (=1)” value read?
Its value is no less than 0.7 ratio.

How did the “ELISA luminescence signal at 10 nmol/L peptide, relative to SEQ ID NO: 47 (=1)” value turn out when YCEENYLDNEQYQYFIYFK(COCH2)Y (thioether 2-19 (inferred)) [cyclic peptide SEQ ID NO: 228] was run?
Its value is no less than 0.7 ratio.

How did the “ELISA luminescence signal at 10 nmol/L peptide, relative to SEQ ID NO: 47 (=1)” value turn out when YCEENYLDQEQYQYFIYFK(COCH2)Y (thioether 2-19 (inferred)) [cyclic peptide SEQ ID NO: 229] was run?
Its value is no less than 0.7 ratio.

For YCEENYLYPEQYQYFIYFK(COCH2)Y (thioether 2-19 (inferred)) [cyclic peptide SEQ ID NO: 212], which “ELISA luminescence signal at 10 nmol/L peptide, relative to SEQ ID NO: 47 (=1)” value is on record?
Its value is no less than 0.7 ratio.

How did the “ELISA luminescence signal at 10 nmol/L peptide, relative to SEQ ID NO: 47 (=1)” value turn out when YCEENYLDWEQYQYFIYFK(COCH2)Y (thioether 2-19 (inferred)) [cyclic peptide SEQ ID NO: 227] was run?
Its value is no less than 0.7 ratio.

YCEENYLHPEQYQYFIYFK(COCH2)Y (thioether 2-19 (inferred)) [cyclic peptide SEQ ID NO: 220] was tested. Which “ELISA luminescence signal at 10 nmol/L peptide, relative to SEQ ID NO: 47 (=1)” value did it give?
Its value is no less than 0.7 ratio.

YCEENYLDPVQYQYFIYFK(COCH2)Y (thioether 2-19 (inferred)) [cyclic peptide SEQ ID NO: 240] was tested. Which “ELISA luminescence signal at 10 nmol/L peptide, relative to SEQ ID NO: 47 (=1)” value did it give?
Its value is no less than 0.7 ratio.

How did the “ELISA luminescence signal at 10 nmol/L peptide, relative to SEQ ID NO: 47 (=1)” value turn out when YCEENYLDDEQYQYFIYFK(COCH2)Y (thioether 2-19 (inferred)) [cyclic peptide SEQ ID NO: 232] was run?
Its value is no less than 0.7 ratio.

How did the “ELISA luminescence signal at 10 nmol/L peptide, relative to SEQ ID NO: 47 (=1)” value turn out when YCEENYLDPIQYQYFIYFK(COCH2)Y (thioether 2-19 (inferred)) [cyclic peptide SEQ ID NO: 239] was run?
The value was no less than 0.7 ratio.

With YCEENYLDHEQYQYFIYFK(COCH2)Y (thioether 2-19 (inferred)) [cyclic peptide SEQ ID NO: 235] as the binder, how does the “ELISA luminescence signal at 10 nmol/L peptide, relative to SEQ ID NO: 47 (=1)” value read?
Its value is no less than 0.7 ratio.

How did the “ELISA luminescence signal at 10 nmol/L peptide, relative to SEQ ID NO: 47 (=1)” value turn out when YCEENYLDPPQYQYFIYFK(COCH2)Y (thioether 2-19 (inferred)) [cyclic peptide SEQ ID NO: 237] was run?
Its value is no less than 0.7 ratio.

Which “ELISA luminescence signal at 10 nmol/L peptide, relative to SEQ ID NO: 47 (=1)” value does the source give for YCEENYLDPFQYQYFIYFK(COCH2)Y (thioether 2-19 (inferred)) [cyclic peptide SEQ ID NO: 241] here?
The value was no less than 0.7 ratio.

With YCEENYLDGEQYQYFIYFK(COCH2)Y (thioether 2-19 (inferred)) [cyclic peptide SEQ ID NO: 221] as the binder, how does the “ELISA luminescence signal at 10 nmol/L peptide, relative to SEQ ID NO: 47 (=1)” value read?
Its value is no less than 0.7 ratio.

YCEENYLDREQYQYFIYFK(COCH2)Y (thioether 2-19 (inferred)) [cyclic peptide SEQ ID NO: 234] was tested. Which “ELISA luminescence signal at 10 nmol/L peptide, relative to SEQ ID NO: 47 (=1)” value did it give?
Its value is no less than 0.7 ratio.

How did the “ELISA luminescence signal at 10 nmol/L peptide, relative to SEQ ID NO: 47 (=1)” value turn out when YCEENYLGPEQYQYFIYFK(COCH2)Y (thioether 2-19 (inferred)) [cyclic peptide SEQ ID NO: 207] was run?
The value was no less than 0.7 ratio.

For YCEENYLRPEQYQYFIYFK(COCH2)Y (thioether 2-19 (inferred)) [cyclic peptide SEQ ID NO: 219], which “ELISA luminescence signal at 10 nmol/L peptide, relative to SEQ ID NO: 47 (=1)” value is on record?
Its value is 0.1 to 0.5 ratio.

Which “ELISA luminescence signal at 10 nmol/L peptide, relative to SEQ ID NO: 47 (=1)” value does the source give for YCEENYLDPLQYQYFIYFK(COCH2)Y (thioether 2-19 (inferred)) [cyclic peptide SEQ ID NO: 238] here?
The value was no less than 0.7 ratio.

YCEENYLDTEQYQYFIYFK(COCH2)Y (thioether 2-19 (inferred)) [cyclic peptide SEQ ID NO: 231] was tested. Which “ELISA luminescence signal at 10 nmol/L peptide, relative to SEQ ID NO: 47 (=1)” value did it give?
The value was no less than 0.7 ratio.

Which “ELISA luminescence signal at 10 nmol/L peptide, relative to SEQ ID NO: 47 (=1)” value does the source give for YCEENYLDPGQYQYFIYFK(COCH2)Y (thioether 2-19 (inferred)) [cyclic peptide SEQ ID NO: 236] here?
The value was 0.1 to 0.5 ratio.

YCEENYLQPEQYQYFIYFK(COCH2)Y (thioether 2-19 (inferred)) [cyclic peptide SEQ ID NO: 215] was tested. Which “ELISA luminescence signal at 10 nmol/L peptide, relative to SEQ ID NO: 47 (=1)” value did it give?
The value was no less than 0.7 ratio.

How did the “ELISA luminescence signal at 10 nmol/L peptide, relative to SEQ ID NO: 47 (=1)” value turn out when YCEENYLDYEQYQYFIYFK(COCH2)Y (thioether 2-19 (inferred)) [cyclic peptide SEQ ID NO: 226] was run?
Its value is no less than 0.7 ratio.
